Tested on: Escherichia coli TOP10
Assay: shrunken log2 fold change of peptide-encoding DNA abundance (4.5 h post-induction vs induction); higher = less antimicrobial activity (less host growth inhibition)
Conditions: time post-induction: 4.5 h; library: site-saturation at positions 5, 18, 19, 20
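Further: peptides expressed intracellularly from a pBAD plasmid library in pooled LB shake-flask culture, induced with 0.3% L-arabinose, DNA abundance read by NGS, three biological replicates, DESeq2 with apeglm shrinkage.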

Sequence | shrunken log2 fold change
RRIRDRPPRLPRPRPRPACRPRP | 0.219
RRIRDRPPRLPRPRPRPADDPRP | 0.637
RRIRDRPPRLPRPRPRPAFCPRP | 0.111
RRIRDRPPRLPRPRPRPAFDPRP | 0.284
RRIRDRPPRLPRPRPRPAGAPRP | 0.509
RRIRDRPPRLPRPRPRPAGDPRP | 0.523
RRIRDRPPRLPRPRPRPAIFPRP | 0.617
RRIRDRPPRLPRPRPRPAILPRP | 0.099
RRIRDRPPRLPRPRPRPAKCPRP | 0.124
RRIRDRPPRLPRPRPRPAKHPRP | 0.0985
RRIRDRPPRLPRPRPRPAKIPRP | -0.00511
RRIRDRPPRLPRPRPRPALAPRP | 1.32
RRIRDRPPRLPRPRPRPANIPRP | -0.114
RRIRDRPPRLPRPRPRPAPKPRP | 0.0948
RRIRDRPPRLPRPRPRPAQKPRP | 0.0225
RRIRDRPPRLPRPRPRPARIPRP | 0.136
RRIRDRPPRLPRPRPRPARMPRP | 0.584
RRIRDRPPRLPRPRPRPASSPRP | 0.0229
RRIRDRPPRLPRPRPRPASYPRP | -0.0767
RRIRDRPPRLPRPRPRPATVPRP | -0.0689
RRIRDRPPRLPRPRPRPAVNPRP | 0.092
RRIRDRPPRLPRPRPRPAWAPRP | 0.713
RRIRDRPPRLPRPRPRPAWFPRP | 0.118
RRIRDRPPRLPRPRPRPAWKPRP | 0.0693
RRIRDRPPRLPRPRPRPAWLPRP | 0.266

Sequence | shrunken log2 fold change
RRIRDRPPRLPRPRPRPCARPRP | 0.219
RRIRDRPPRLPRPRPRPCENPRP | 0.0231
RRIRDRPPRLPRPRPRPCHIPRP | -0.251
RRIRDRPPRLPRPRPRPCILPRP | 1.16
RRIRDRPPRLPRPRPRPCKCPRP | -0.147
RRIRDRPPRLPRPRPRPCKWPRP | -0.203
RRIRDRPPRLPRPRPRPCLEPRP | 0.103
RRIRDRPPRLPRPRPRPCLIPRP | 0.0225
RRIRDRPPRLPRPRPRPCMAPRP | 0.203
RRIRDRPPRLPRPRPRPCMWPRP | 0.569
RRIRDRPPRLPRPRPRPCNSPRP | -0.0276
RRIRDRPPRLPRPRPRPCPIPRP | -0.00104
RRIRDRPPRLPRPRPRPCPWPRP | 0.0761
RRIRDRPPRLPRPRPRPCQLPRP | -0.0273
RRIRDRPPRLPRPRPRPCSCPRP | 0.173
RRIRDRPPRLPRPRPRPCSNPRP | 0.0176
RRIRDRPPRLPRPRPRPCVIPRP | 0.1
RRIRDRPPRLPRPRPRPCVNPRP | 0.0261
RRIRDRPPRLPRPRPRPCVSPRP | 0.0278
RRIRDRPPRLPRPRPRPCYGPRP | -0.0515
RRIRDRPPRLPRPRPRPDAAPRP | 1.67
RRIRDRPPRLPRPRPRPDEDPRP | 1.46
RRIRDRPPRLPRPRPRPDFKPRP | 0.00362
RRIRDRPPRLPRPRPRPDHHPRP | -0.616
RRIRDRPPRLPRPRPRPDHMPRP | -0.0107

Sequence | shrunken log2 fold change
RRIRDRPPRLPRPRPRPDIHPRP | -0.0156
RRIRDRPPRLPRPRPRPDILPRP | 0.111
RRIRDRPPRLPRPRPRPDKLPRP | -0.0536
RRIRDRPPRLPRPRPRPDKVPRP | -0.159
RRIRDRPPRLPRPRPRPDNHPRP | -0.107
RRIRDRPPRLPRPRPRPDNTPRP | -0.103
RRIRDRPPRLPRPRPRPDNYPRP | -0.117
RRIRDRPPRLPRPRPRPDPDPRP | 0.671
RRIRDRPPRLPRPRPRPDPGPRP | 0.506
RRIRDRPPRLPRPRPRPDSEPRP | -0.0121
RRIRDRPPRLPRPRPRPDSKPRP | 0.0365
RRIRDRPPRLPRPRPRPDSMPRP | 0.00619
RRIRDRPPRLPRPRPRPDTEPRP | 0.0738
RRIRDRPPRLPRPRPRPDTSPRP | -0.114
RRIRDRPPRLPRPRPRPDVFPRP | 0.07
RRIRDRPPRLPRPRPRPDVYPRP | -0.00822
RRIRDRPPRLPRPRPRPDWDPRP | 4.78
RRIRDRPPRLPRPRPRPDWVPRP | 0.0881
RRIRDRPPRLPRPRPRPDYEPRP | -0.0367
RRIRDRPPRLPRPRPRPDYGPRP | -0.181
RRIRDRPPRLPRPRPRPDYMPRP | 0.0916
RRIRDRPPRLPRPRPRPDYWPRP | -0.00116
RRIRDRPPRLPRPRPRPECKPRP | 0.109
RRIRDRPPRLPRPRPRPECQPRP | -0.00804
RRIRDRPPRLPRPRPRPECVPRP | 1.3

Sequence | shrunken log2 fold change
RRIRDRPPRLPRPRPRPEDQPRP | 0.0219
RRIRDRPPRLPRPRPRPEDRPRP | 0.0616
RRIRDRPPRLPRPRPRPEETPRP | -0.00131
RRIRDRPPRLPRPRPRPEFAPRP | 1.54
RRIRDRPPRLPRPRPRPEFDPRP | 0.375
RRIRDRPPRLPRPRPRPEFWPRP | 1.02
RRIRDRPPRLPRPRPRPEGPPRP | 1.51
RRIRDRPPRLPRPRPRPEGSPRP | 1.06
RRIRDRPPRLPRPRPRPEHAPRP | 0.294
RRIRDRPPRLPRPRPRPEHDPRP | -0.0084
RRIRDRPPRLPRPRPRPEHEPRP | 0.017
RRIRDRPPRLPRPRPRPEHGPRP | 0.0582
RRIRDRPPRLPRPRPRPEKRPRP | -0.0167
RRIRDRPPRLPRPRPRPEKSPRP | -0.00264
RRIRDRPPRLPRPRPRPELWPRP | 2.17
RRIRDRPPRLPRPRPRPEMWPRP | 2.04
RRIRDRPPRLPRPRPRPEQMPRP | 0.861
RRIRDRPPRLPRPRPRPERCPRP | 0.426
RRIRDRPPRLPRPRPRPERTPRP | 0.12
RRIRDRPPRLPRPRPRPESWPRP | 1.58
RRIRDRPPRLPRPRPRPETDPRP | 0.0208
RRIRDRPPRLPRPRPRPETFPRP | 0.00902
RRIRDRPPRLPRPRPRPEWRPRP | 1.08
RRIRDRPPRLPRPRPRPEYYPRP | -0.00627
RRIRDRPPRLPRPRPRPFASPRP | -0.0205

Sequence | shrunken log2 fold change
RRIRDRPPRLPRPRPRPFDHPRP | 0.0299
RRIRDRPPRLPRPRPRPFDKPRP | -0.0665
RRIRDRPPRLPRPRPRPFEWPRP | 0.109
RRIRDRPPRLPRPRPRPFFLPRP | -0.261
RRIRDRPPRLPRPRPRPFKLPRP | 0.0184
RRIRDRPPRLPRPRPRPFKQPRP | -0.235
RRIRDRPPRLPRPRPRPFLKPRP | -0.212
RRIRDRPPRLPRPRPRPFLPPRP | -0.358
RRIRDRPPRLPRPRPRPFMWPRP | -0.102
RRIRDRPPRLPRPRPRPFPRPRP | -0.135
RRIRDRPPRLPRPRPRPFSQPRP | -0.172
RRIRDRPPRLPRPRPRPFVTPRP | -0.0344
RRIRDRPPRLPRPRPRPFWLPRP | 0.00235
RRIRDRPPRLPRPRPRPFYWPRP | -0.0675
RRIRDRPPRLPRPRPRPFYYPRP | -0.899
RRIRDRPPRLPRPRPRPGAYPRP | 0.136
RRIRDRPPRLPRPRPRPGCFPRP | 0.565
RRIRDRPPRLPRPRPRPGCLPRP | 0.589
RRIRDRPPRLPRPRPRPGCVPRP | 0.616
RRIRDRPPRLPRPRPRPGELPRP | 0.684
RRIRDRPPRLPRPRPRPGESPRP | -0.00997
RRIRDRPPRLPRPRPRPGGIPRP | 0.129
RRIRDRPPRLPRPRPRPGGMPRP | 0.0874
RRIRDRPPRLPRPRPRPGGQPRP | 0.211
RRIRDRPPRLPRPRPRPGIKPRP | -0.165

Sequence | shrunken log2 fold change
RRIRDRPPRLPRPRPRPGIVPRP | 0.0969
RRIRDRPPRLPRPRPRPGKHPRP | -0.0728
RRIRDRPPRLPRPRPRPGLGPRP | 0.208
RRIRDRPPRLPRPRPRPGLHPRP | -6.57e-05
RRIRDRPPRLPRPRPRPGLMPRP | -0.152
RRIRDRPPRLPRPRPRPGMFPRP | 0.00675
RRIRDRPPRLPRPRPRPGMSPRP | 0.0134
RRIRDRPPRLPRPRPRPGNQPRP | -0.0686
RRIRDRPPRLPRPRPRPGPIPRP | -0.0864
RRIRDRPPRLPRPRPRPGPLPRP | 0.0434
RRIRDRPPRLPRPRPRPGQNPRP | -0.0354
RRIRDRPPRLPRPRPRPGQRPRP | 0.0563
RRIRDRPPRLPRPRPRPGRQPRP | 0.0393
RRIRDRPPRLPRPRPRPGSDPRP | 0.461
RRIRDRPPRLPRPRPRPGSFPRP | 0.0331
RRIRDRPPRLPRPRPRPGTMPRP | -0.302
RRIRDRPPRLPRPRPRPGTNPRP | -0.344
RRIRDRPPRLPRPRPRPGVRPRP | 0.502
RRIRDRPPRLPRPRPRPGVVPRP | 0.708
RRIRDRPPRLPRPRPRPGWQPRP | 0.22
RRIRDRPPRLPRPRPRPGYHPRP | -0.071
RRIRDRPPRLPRPRPRPGYPPRP | 0.0463
RRIRDRPPRLPRPRPRPHAIPRP | -0.0018
RRIRDRPPRLPRPRPRPHAMPRP | 0.158
RRIRDRPPRLPRPRPRPHAQPRP | -0.0623
